Measured values taken from patent publication US20190135932A1 (Pfizer, published 2019).
Several values for one entry are separate records, joined by “and”; a condition that tells them apart may be missing. Equal entries are not always repeated.

T1: commercially available fusion protein containing the extracellular domain of the murine OX40R (mouse, UniProt P47741 20-211)
T1 construct: extracellular domain; Bought; also called mouse OX40R fusion protein
T1 sequence (looked up): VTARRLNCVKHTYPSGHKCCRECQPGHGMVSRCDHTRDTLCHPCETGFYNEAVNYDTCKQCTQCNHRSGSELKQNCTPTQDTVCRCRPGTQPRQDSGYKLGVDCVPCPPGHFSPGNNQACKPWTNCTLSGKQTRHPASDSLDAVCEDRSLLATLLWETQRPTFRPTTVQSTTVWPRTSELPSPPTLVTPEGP

T2: human OX40R on activated primary human T cells (human, UniProt P43489 29-277)
T2 sequence (looked up): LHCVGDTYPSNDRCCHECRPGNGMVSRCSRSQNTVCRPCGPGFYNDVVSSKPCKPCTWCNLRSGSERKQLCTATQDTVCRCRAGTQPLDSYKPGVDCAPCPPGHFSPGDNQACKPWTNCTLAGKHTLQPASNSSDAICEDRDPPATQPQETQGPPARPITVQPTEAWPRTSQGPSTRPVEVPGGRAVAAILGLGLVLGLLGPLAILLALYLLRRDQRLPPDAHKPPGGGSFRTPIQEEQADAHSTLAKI

T3: recombinant human OX40-CD40 fusion construct (amino acids 1-235 of OX40, 216-278 of CD40) expressed on 300-19 … (human, UniProt P43489 29-235; P25942 216-277)
T3 construct: range 1-235;range 216-278; also called OX40R+ 300-19 cells; OX40R transfected cells
T3 sequence (looked up): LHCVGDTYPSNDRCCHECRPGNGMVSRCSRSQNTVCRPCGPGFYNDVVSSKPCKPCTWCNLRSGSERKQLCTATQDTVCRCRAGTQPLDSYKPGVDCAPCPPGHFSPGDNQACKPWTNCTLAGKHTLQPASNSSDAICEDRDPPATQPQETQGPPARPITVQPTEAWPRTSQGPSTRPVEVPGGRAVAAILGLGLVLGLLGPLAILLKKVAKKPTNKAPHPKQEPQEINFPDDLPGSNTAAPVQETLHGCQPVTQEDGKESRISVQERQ

T4: Biotinylated CD134-muIg (Ancell 513-030) (UniProt P43489 29-214, biotinylated)
T4 construct: extracellular domain; Captured on streptavidin on a CM5 chip; also called OX40R extracellular domain fusion protein (Biacore ligand); not shown: murine Ig part (muIg) of the bought fusion
T4 sequence (looked up): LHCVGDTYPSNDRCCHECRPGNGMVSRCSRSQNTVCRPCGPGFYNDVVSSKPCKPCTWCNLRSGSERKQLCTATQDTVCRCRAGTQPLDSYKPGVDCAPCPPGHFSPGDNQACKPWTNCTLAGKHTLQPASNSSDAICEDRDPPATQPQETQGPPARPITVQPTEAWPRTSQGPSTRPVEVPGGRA


Key:
[1] = target: T1, commercially available fusion protein …; test: ELISA
[2] = target: T5, CD271-Ig (Alexis Biochemicals) (human, UniProt P08138 29-250); test: ELISA on coated receptor-Ig fusion protein
T5 construct: extracellular domain; Bought; also called nerve growth factor receptor (CD271)
T5 sequence (P08138 29-250): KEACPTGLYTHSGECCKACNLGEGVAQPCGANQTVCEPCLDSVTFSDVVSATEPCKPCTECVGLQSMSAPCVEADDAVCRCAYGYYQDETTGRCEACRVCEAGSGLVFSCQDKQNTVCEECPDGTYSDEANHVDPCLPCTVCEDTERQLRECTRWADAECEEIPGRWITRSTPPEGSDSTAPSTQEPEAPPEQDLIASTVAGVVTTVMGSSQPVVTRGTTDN
Procedure: (§1) Maxisorb 96-well plates (Nunc, Roskilde, Denmark) were coated with 100 μl of human TNFα receptor family member fusion proteins at 0.25 μg/ml diluted in BupH™ Carbonate buffer, pH 9.4 (Pierce, Rockford, Ill.) and incubated overnight at 4° C. The selectivity receptor fusion proteins tested included CD40-Ig (Alexis Biochemicals, San Diego, Calif.), CD137-Ig (R&D Systems, Minneapolis, Minn.) and CD271-Ig (Alexis Biochemicals, San Diego, Calif.). Also included as the positive control with each assay was the OX40-Ig fusion protein (in-house construct, Bioexpress, 97/2117). Plates were then washed three times with wash buffer containing 0.05% Tween 20 (Sigma, St Louis, Mo.) diluted in PBS and blocked with 300 μl of 0.5% BSA (Sigma, St Louis, Mo.) in PBS (Sigma, St Louis, Mo.) for 1 hour at RT°. Next, the plates were washed and 100 μl/well of anti-human OX40 reactive antibodies were added to the plates at various concentrations and incubated for 1 hour at RT°. Plates were thoroughly washed three times and OX40R antibody binding was detected with a horse radish peroxidase labeled anti-human kappa chain antibody (Bethyl Laboratories, Montgomery, Tex.) at 25 ng/ml for 1 hour at RD°. Plates were then washed three times which was followed by the addition of 100 μl/well of 1-Step Turbo-TMB substrate (Pierce, Rockford, Ill.) for 30 minutes at RT. The reaction was stopped by adding an equal volume of 2M H₂ SO₄. Absorbance was read at 450 nm on a Molecular Devices Spectra Max 340 (Molecular Devices, Sunnyvale, Calif.).

[3] = target: T6, CD40-Ig (Alexis Biochemicals) (human, UniProt P25942 21-193); test: ELISA on coated receptor-Ig fusion protein
T6 construct: extracellular domain; Bought; also called CD40 receptor
T6 sequence (P25942 21-193): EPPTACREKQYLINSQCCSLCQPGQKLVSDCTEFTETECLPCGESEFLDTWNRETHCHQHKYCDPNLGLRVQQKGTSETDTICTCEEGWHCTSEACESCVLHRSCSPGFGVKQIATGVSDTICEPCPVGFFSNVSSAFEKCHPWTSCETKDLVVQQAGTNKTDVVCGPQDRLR
Procedure: as §1

CD137-Ig (R&D Systems) = target: T7, CD137-Ig (R&D Systems) (human, UniProt Q07011 24-186); test: ELISA on coated receptor-Ig fusion protein
T7 construct: extracellular domain; Bought; also called 4-1BB receptor (CD137)
T7 sequence (Q07011 whole entry, the tested form may be a part): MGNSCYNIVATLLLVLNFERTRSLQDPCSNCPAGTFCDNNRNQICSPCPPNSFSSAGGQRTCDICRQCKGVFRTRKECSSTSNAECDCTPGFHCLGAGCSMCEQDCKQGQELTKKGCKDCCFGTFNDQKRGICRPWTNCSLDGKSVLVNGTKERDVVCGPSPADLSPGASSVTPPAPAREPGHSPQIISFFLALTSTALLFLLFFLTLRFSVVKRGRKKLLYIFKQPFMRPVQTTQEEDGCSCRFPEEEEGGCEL
Procedure: as §1

[4] = target: T5, CD271-Ig (Alexis Biochemicals); test: ELISA on coated receptor-Ig fusion proteins, against the EC50 on the OX40R fusion protein
Procedure: as §1

[5] = target: T2, human OX40R on activated primary human …; test: cell-based or functional assay
[6] = target: T3, recombinant human OX40-CD40 fusion …; test: FACS saturation binding on OX40R+ 300-19 cells (N = 2)
Procedure: OX40R-expressing cell lines (see below) or activated primary peripheral blood mononuclear cells (see below) were used to assess binding on both the human and cynomolgus OX40 receptors. Cells were harvested and washed (5×10⁵/tube) using wash buffer at RT°. The wash buffer consisted of PBS, 2% heat-inactivated fetal bovine serum (Hyclone, Logan, Utah) and 0.02% sodium azide (Sigma, St. Louis, Mo.). Next, 100 μl of various concentrations of antibody was added to the cells (starting at 30 ug/ml and using a 3-fold titration) diluted in wash buffer containing 0.005 mg/ml of cytocholasin B (Sigma, St. Louis, Mo.). The cells were gently rocked at RT° for 3 hours. Next, the cells were washed twice and resuspended in 0.5 ml/tube with cold wash buffer and 10,000 events were collected and analyzed using a Becton Dickinson FACSCalibur and CellQuest software (San Jose, Calif.).

[7] = target: T4, Biotinylated CD134-muIg (Ancell 513-030); test: Biacore (SPR), biotinylated CD134-muIg captured on streptavidin, antibody in solution
Procedure: Biotinylated CD134-muIg (Ancell 513-030), at a concentration of 10 μg/ml at a flow rate of 5 μl/min was manually injected over Flow cells-2, 3 and 4 to achieve 3 surface densities: Fc-2=150RU, Fc-3=375RU and Fc-4=580RU. The different density surfaces were prepared to monitor the possibility of mass transport limited binding during association phase and rebinding during dissociation, both artifacts that are influenced by surface density that must be avoided.

| binding result [1] | Selectivity (binding) [2] | Selectivity (binding) [3] | Selectivity (binding) (CD137-Ig (R&D Systems)) | fold selectivity for the OX40R over this receptor [4] [fold] | Augmentation of T Cell Activity (EC50): CD3 induced IL-2 production (N = 4) [5] | Augmentation of T Cell Activity (EC50): Stimulation of IL-2 production by antigen-primed cells (N = 1) [5] | Selectivity (Binding to CD40, CD137, CD271) [2] [nM] | Selectivity (Binding to CD40, CD137, CD271) [3] [nM] | Selectivity (Binding to CD40, CD137, CD271) (CD137-Ig (R&D Systems)) [nM] | EC50 [6] | Kd [7] | koff [7] [s⁻¹] | Binder |
| --- | --- | --- | --- | --- | --- | --- | --- | --- | --- | --- | --- | --- | --- |
| no binding | > 100 µg/mL and > 700 nM | > 100 µg/mL and > 700 nM | > 100 µg/mL and > 700 nM | > 100 |  |  |  |  |  |  |  |  | human monoclonal antibody 11D4 (antibody, V domains shown, IgG2 heavy chain, kappa light chain; allotypes G2(n-) and Km3; Alexa Fluor 647 conjugate was used in the species cross-reactivity FACS) VH: EVQLVESGGGLVQPGGSLRLSCAASGFTFSSYSMNWVRQAPGKGLEWVSYISSSSSTIDYADSVKGRFTISRDNAKNSLYLQMNSLRDEDTAVYYCARESGWYLFDYWGQGTLVTVSS VL: DIQMTQSPSSLSASVGDRVTITCRASQGISSWLAWYQQKPEKAPKSLIYAASSLQSGVPSRFSGSGSGTDFTLTISSLQPEDFATYYCQQYNSYPPTFGGGTKVEIKR |
|  |  |  |  |  | 0.049 µg/ml and 0.33 nM | 0.014 µg/ml and 0.1 nM | > 700 | > 700 | > 700 | 0.24 µg/mL and 1.66 nM | 0.49 µg/mL and 3.38 nM | 0.00029 | human monoclonal antibody 18D8 (antibody, human IgG2, kappa, V domains shown) VH: EVQLVESGGGLVQPGRSLRLSCAASGFTFDDYAMHWVRQAPGKGLEWVSGISWNSGSIGYADSVKGRFTISRDNAKNSLYLQMNSLRAEDTALYYCAKDQSTADYYFYYGMDVWGQGTTVTVSS VL: EIVVTQSPATLSLSPGERATLSCRASQSVSSYLAWYQQKPGQAPRLLIYDASNRATGIPARFSGSGSGTDFTLTISSLEPEDFAVYYCQQRSNWPTFGQGTKVEIKR |
